In assay [1] the target is extra-cellular domain of Siglec-9 fused to a C-terminal his-tag (Homo sapiens (Human), UniProt Q9Y336 18-348). Briefly: ELISA, coated his-tagged Siglec-9 extracellular domain, anti-human Fc gamma detection, Abs 450 nm. The source says:
(SEQ ID NO: 44) […] […] […] […] […] […] […]. For detection of bound IgG either polyclonal anti- rabbit IgG antibody (68D4; Biolegend, #406401), or anti-human Fey fragment (humanized 68D4 and mAbA; Jackson Immuno Research laboratories, #109-035-098) were used.

For assay [2], the target named is T1, Siglec-8-Fc (R&D systems) (UniProt Q9NYZ4 17-363, limits assumed).
T1 construct: Bought reagent; not shown: Fc part of the bought fusion; not described
T1 sequence (Q9NYZ4 17-363 limits assumed): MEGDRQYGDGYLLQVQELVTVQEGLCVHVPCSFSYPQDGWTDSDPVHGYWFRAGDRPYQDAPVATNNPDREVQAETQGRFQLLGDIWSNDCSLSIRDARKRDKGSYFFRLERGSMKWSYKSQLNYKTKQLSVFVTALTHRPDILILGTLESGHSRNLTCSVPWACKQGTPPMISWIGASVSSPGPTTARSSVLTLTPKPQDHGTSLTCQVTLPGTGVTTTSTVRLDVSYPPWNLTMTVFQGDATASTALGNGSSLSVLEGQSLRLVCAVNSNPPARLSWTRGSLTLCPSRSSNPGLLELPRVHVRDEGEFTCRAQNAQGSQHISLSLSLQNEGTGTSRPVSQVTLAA
Briefly: ELISA, coated Siglec-8-Fc 1 µg/ml, single antibody concentration, Abs 450 nm, n=3. The protocol:
(§1) Specificity towards Siglec-5, Siglec-7, Siglec-8, Siglec-15 and Siglec-9 was assayed in enzyme-linked immunosorbent assay (ELISA) using 96 well half-area ELISA plates (Corning). Siglec-5-Fc (R&D systems), Siglec-7-Fc (in-house production, Siglec-7-Fc protein used had the following amino acid sequence:
(§2) (SEQ ID NO: 59)) […] […] […] […] […] […] […] […] […] […] […] […], Siglec-8-Fc (R&D systems), Siglec-15- Fc (R&D systems) and Siglec-9-Fc (in-house production, SEQ ID NO: 11) were coated at 1 μg/ml in 50 mM carbonate-bicarbonate buffer pH 9.6 for 15-20 hours at 4° C.
(§3) Antigens were washed away (Tecan Hydrospeed) and plates were blocked with 5% skimmed milk in phosphate-buffered saline (PBS). After washing the plates, antibodies were added at 5 μg/ml (33 nM) in 0.5% milk PBS in triplicates. Plates with antibodies were incubated for 1 hour at room temperature. Plates were washed and bound antibodies were detected by horseradish peroxidase (HRP)-labeled polyclonal anti-rabbit IgG antibody (Biolegend) or anti-human Fab fragment for mAbA (Sigma Aldrich). 3,3′,5,5′-Tetramethylbenzidine (TMB; Sigma Aldrich) development was stopped by addition of sulfuric acid and absorbance was detected at 450 nm (Tecan, CM […] MONO 200).

Assay [3] has as its target T2, Siglec-9 expressed on cells (human, UniProt Q9Y336 18-463).
T2 construct: also called monocyte-expressed Siglec-9
Description: flow cytometry on human CD14+ monocytes (PBMC), mean RFU of the secondary antibody, three-parameter fit. The protocol:
(§4) Human ex vivo PBMC were stained with fluorescence-labeled (allophycocyanin, APC) antibody to the monocyte marker CD14 (Biolegend) in assay buffer (0.5% (v/v) heat-inactivated fetal bovine serum (Gibco), 2 mM EDTA in phosphate-buffered saline). Subsequently, cells were incubated with antibodies under evaluation at various concentrations (67 nM-0.38 pM). After a washing step cells were incubated with fluorescence-labeled (Brilliant Violet 421™) secondary antibody against human IgG (mAbA) or rabbit IgG (all other monoclonal antibodies under evaluation; both secondary antibodies from Biolegend).
(§5) Binding of Siglec-9-specific antibodies to monocytes (CD14-positive life cells) was analysed with a CytoFLEX flow cytometer (Beckham Coulter's). The mean fluorescence intensity of the secondary antibody staining in the CD14-positive population at each dilution was determined using Flow Jo software (BD). Datapoints generated by this analysis were fitted and EC50 values were determined by three-parameter analysis in GraphPad Prism (GraphPad Software)

The target in assay [4] is T3, Siglec-9-Fc (in-house production).
T3 construct: The entry holds the Siglec-9 part and the Fc together; also called Siglec-9-Fc protein
T3 sequence (chain, as listed by the source limits assumed): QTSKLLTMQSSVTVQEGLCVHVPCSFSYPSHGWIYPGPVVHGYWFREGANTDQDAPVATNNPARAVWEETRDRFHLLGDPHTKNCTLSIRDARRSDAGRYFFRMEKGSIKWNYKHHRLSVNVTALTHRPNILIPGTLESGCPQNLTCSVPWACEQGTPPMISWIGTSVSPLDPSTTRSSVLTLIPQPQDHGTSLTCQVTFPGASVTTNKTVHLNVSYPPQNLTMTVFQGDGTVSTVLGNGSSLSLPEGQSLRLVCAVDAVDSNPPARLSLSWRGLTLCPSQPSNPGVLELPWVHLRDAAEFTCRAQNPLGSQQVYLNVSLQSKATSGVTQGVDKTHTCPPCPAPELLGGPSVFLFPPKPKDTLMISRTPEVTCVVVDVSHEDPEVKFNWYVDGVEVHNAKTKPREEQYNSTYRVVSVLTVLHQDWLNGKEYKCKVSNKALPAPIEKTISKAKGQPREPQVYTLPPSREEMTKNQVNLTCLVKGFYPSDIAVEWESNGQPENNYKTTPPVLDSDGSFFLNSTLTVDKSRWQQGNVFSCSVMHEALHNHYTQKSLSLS
Briefly: blocking assay: Calcein-AM labelled sialic acid-displaying A549 tumour cells binding to plate-captured Siglec-9-Fc, antibody titrated, n=3. The method, then:
FIG. 4: Titration of monoclonal antibodies (68D4 and 224B1; comparative monoclonal antibodies mAbA and 5C6 & negative control 53C3) to determine blocking the binding of sialic acid-displaying A549 tumour cells to Siglec-9. Tumour cells were fluorescently-loaded with Calcein-AM in advance to the binding experiment and binding was determined by the released fluorescence upon cell lysis. Fluorescence released in the absence of antibody was set to 100% binding. Data was fitted by three-parameter analysis in GraphPad Prism (GraphPad Software); n=3.
To analyse if anti-Siglec-9 antibodies recognize the ligand-binding domain and block the binding of Siglec-9 to its ligands, sialic acids, we performed a cell-based assay where the binding of sialic-acid expressing A549 tumour cells to Siglec-9-Fc is evaluated in ELISA. ELISA-plates were coated with 3 μg/ml Protein-A (Thermo Fisher Scientific) overnight at 4° C. Plates were blocked with PBS, 1% BSA for 1 h, and incubated with 5 μg/ml Siglec-9-Fc for 1 h at RT. Anti-Siglec-9 antibodies at different concentrations (starting at 8 μg/ml or 53 nM); were mixed 1:1 with Calcein-AM (Thermo Fisher Scientific) labeled A549 tumour cells. The mixture was added to the ELISA plate and incubated for 1 h at 4° C. After washing of the plate, cells that were bound to the plate were lysed with PBS, 1% Triton-X 100 and released fluorescence was measured at an excitation of 485 nm and emission of 535 nm with a Synergy H1 (BioTek). Data were fitted by three-parameter analysis in GraphPad Prism (GraphPad Software).

In assay [5] the target is T4, Siglec-15-Fc (R&D systems) (UniProt Q6ZMC9 20-263, limits assumed).
T4 construct: Bought reagent; not shown: Fc part of the bought fusion; not described
T4 sequence (looked up): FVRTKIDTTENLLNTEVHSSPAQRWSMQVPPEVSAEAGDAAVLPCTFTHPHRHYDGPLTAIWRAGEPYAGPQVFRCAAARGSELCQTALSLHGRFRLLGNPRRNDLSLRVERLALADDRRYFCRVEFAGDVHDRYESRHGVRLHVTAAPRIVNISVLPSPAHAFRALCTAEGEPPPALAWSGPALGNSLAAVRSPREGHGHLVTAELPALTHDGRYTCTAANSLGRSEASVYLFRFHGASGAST
Description: ELISA, coated Siglec-15-Fc 1 µg/ml, single antibody concentration, Abs 450 nm, n=3. The protocol: as §1, §2, §3

The target of assay [6] is T5, Siglec-5-Fc (R&D systems) (UniProt O15389 17-434, limits assumed).
T5 construct: Bought reagent; not shown: Fc part of the bought fusion; not described
T5 sequence (looked up): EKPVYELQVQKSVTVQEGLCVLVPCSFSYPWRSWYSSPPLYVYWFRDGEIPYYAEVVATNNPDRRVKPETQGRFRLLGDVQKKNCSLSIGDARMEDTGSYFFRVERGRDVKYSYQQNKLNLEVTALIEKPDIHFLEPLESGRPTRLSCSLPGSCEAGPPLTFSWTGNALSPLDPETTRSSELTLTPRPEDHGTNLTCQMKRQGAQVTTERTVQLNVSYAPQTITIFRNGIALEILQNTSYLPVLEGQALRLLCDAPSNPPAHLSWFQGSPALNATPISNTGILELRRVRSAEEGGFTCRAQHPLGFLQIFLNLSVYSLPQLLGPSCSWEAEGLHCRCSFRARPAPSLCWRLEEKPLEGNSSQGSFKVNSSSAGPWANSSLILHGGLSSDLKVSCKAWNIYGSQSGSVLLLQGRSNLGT
Description: ELISA, coated Siglec-5-Fc 1 µg/ml, single antibody concentration, Abs 450 nm, n=3. The protocol: as §1, §2, §3

Assay [7] addresses T6, Siglec-7-Fc (in-house production).
T6 construct: The entry holds the Siglec-7 part and the Fc together; also called Siglec-7-Fc protein
Briefly: ELISA, coated Siglec-7-Fc 1 µg/ml, single antibody concentration, Abs 450 nm, n=3. The protocol: as §1, §2, §3

Assay [8] deals with T7, Siglec-9 protein (construct not stated; antigen of Examples 3 and 4) (human, UniProt Q9Y336 18-348, limits assumed). Briefly: ELISA, coated Siglec-9 1 µg/ml, antibody titrated, Abs 450 nm, three-parameter fit, n=3. The protocol:
FIG. 2: Binding curves of monoclonal antibodies (68D4 and 224B1; comparative monoclonal antibodies mAbA and 5C6 & negative control 53C3) towards Siglec-9 as analysed by ELISA. Binding of the monoclonal antibody to Siglec-9, as determined by measurement of the accumulated coloured product at 450 nm after stopping the reaction, is plotted against the concentration of the monoclonal antibody under evaluation.
Antibody binding affinity towards Siglec-9 was measured by a dilution series of the analysed antibodies on a fixed concentration of Siglec-9 protein in ELISA. To this end, Siglec-9 was coated at 1 μg/ml in 50 mM carbonate-bicarbonate buffer pH 9.6 for 15-20 hours at 4° C. Antigen solution was washed away (Tecan Hydrospeed) and plates were blocked with 5% skimmed milk in phosphate-buffered saline (PBS) for 1 hour at room temperature. Plates were washed and antibodies were added at concentrations of 0-420 nM. After incubation at room temperature for 1 hour plates were washed once more. Bound antibodies were detected by addition of horseradish peroxidase (HRP)-coupled secondary antibodies. Rabbit antibodies were detected by polyclonal anti-rabbit IgG antibody (Biolegend), mAbA by anti-human Fab fragment (Sigma Aldrich). After a last washing step, plates were developed by the addition of 3,3′,5,5′-Tetramethylbenzidine (TMB; Sigma Aldrich). Reaction was stopped by addition of sulfuric acid. Absorbance was detected at 450 nm (Tecan, CM […] MONO 200). Data were fitted and EC50 values were determined by three-parameter analysis in GraphPad Prism (GraphPad Software)

The target of assay [9] is T7, Siglec-9 protein (construct not stated; …). Briefly: SPR (Carterra LSA), antibody coupled to HC2000M chip, antigen at 20, 100 and 500 nM. The protocol: (§6) KD determination was performed by SPR by individually coating the antibodies to HC2000M chips via sulpho-NHS/EDC coupling chemistry. Chips were afterwards blocked with ethanolamine. Antigen was applied in one of the three different concentrations (20 nM, 100 nM and 500 nM) with a contact time of 240 s, followed by a dissociation phase of 120 s. After each antigen incubation, the bound antigen was removed from the antibodies with 10 mM glycine at pH 2.0. All kinetic parameters (kₒₙ, koff and KD) were determined using a kinetic fitting program (LSA Kinetics, Carterra).

Assay [10] shares this target. Description: SPR (Carterra LSA), antibody coupled to HC2000M chip, antigen in solution. The method, then: as §6
Assay [11] deals with T3, Siglec-9-Fc (in-house production). Briefly: ELISA, coated Siglec-9-Fc 1 µg/ml, antibody at 5 µg/ml (33 nM), Abs 450 nm, n=3. The method, then:
as §1, §2, §3

For assay [12], the target named is T2, Siglec-9 expressed on cells. Briefly: flow cytometry on human CD14+ monocytes in PBMC. The protocol:
as §4, §5

The values that follow come from patent US20230009582A1 (MEMO THERAPEUTICS, published 2023).

T2 sequence (Q9Y336 18-463 limits assumed): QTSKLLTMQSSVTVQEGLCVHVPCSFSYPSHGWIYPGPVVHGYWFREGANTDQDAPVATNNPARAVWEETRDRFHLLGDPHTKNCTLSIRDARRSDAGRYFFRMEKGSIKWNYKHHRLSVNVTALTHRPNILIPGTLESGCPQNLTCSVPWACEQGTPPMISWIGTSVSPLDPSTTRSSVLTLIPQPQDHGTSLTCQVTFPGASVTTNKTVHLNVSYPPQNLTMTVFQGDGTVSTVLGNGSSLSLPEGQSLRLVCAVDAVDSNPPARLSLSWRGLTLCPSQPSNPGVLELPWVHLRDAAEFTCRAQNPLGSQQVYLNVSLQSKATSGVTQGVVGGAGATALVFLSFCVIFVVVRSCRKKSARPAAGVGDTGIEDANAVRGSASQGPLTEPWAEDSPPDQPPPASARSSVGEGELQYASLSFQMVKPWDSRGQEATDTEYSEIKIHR
T7 sequence (Q9Y336 18-348 limits assumed): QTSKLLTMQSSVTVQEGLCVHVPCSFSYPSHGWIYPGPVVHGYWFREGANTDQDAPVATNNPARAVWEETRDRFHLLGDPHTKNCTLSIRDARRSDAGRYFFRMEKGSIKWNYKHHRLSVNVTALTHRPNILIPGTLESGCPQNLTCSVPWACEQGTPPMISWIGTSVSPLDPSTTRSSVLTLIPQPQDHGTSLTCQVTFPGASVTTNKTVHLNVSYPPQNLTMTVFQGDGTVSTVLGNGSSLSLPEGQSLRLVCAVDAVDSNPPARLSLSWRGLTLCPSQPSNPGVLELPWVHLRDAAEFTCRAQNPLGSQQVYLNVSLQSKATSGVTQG
T6 sequence (chain, as listed by the source limits assumed): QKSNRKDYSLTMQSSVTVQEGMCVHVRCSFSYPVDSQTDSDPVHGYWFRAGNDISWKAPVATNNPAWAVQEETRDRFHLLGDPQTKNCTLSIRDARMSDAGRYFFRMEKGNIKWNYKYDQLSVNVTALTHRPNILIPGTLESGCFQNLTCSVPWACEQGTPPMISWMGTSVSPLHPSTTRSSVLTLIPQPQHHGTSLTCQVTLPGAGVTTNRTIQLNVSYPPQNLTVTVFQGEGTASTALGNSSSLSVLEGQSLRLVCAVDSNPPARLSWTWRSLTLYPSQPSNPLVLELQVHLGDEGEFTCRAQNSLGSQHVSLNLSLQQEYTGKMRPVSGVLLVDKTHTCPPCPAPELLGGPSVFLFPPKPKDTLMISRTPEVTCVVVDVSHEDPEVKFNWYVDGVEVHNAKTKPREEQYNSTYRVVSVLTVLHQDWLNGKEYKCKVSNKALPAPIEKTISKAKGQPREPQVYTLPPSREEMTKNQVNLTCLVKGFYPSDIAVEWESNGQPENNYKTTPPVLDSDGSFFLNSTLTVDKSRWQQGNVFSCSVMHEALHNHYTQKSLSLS
extra-cellular domain of Siglec-9 fused to a C-terminal his-tag, sequence (Q9Y336 18-348 limits assumed): as the sequence (Q9Y336 18-348 limits assumed) above

B1: humanized anti-Siglec-9 antibody 68D4 (68D4-hum) (antibody, human IgG1, kappa, V domains shown)
VH: EVQLVESGGGLVQPGGSLRISCAASGIDLSSYDMTWVRQAPGKGLEWVSIIYTGGLTYYADSVKGRFTISRDNSKNTVYLQMNSLRAEDTAVYYCAREVGDNNNFWGQGTLVTVSS
VL: DIVMTQSPSSVSASVGDRVTITCRASESVSSGLAWYQQKPGKAPKLLVYDDTDLASGVPSRFSGSGSGTEFTLTISSLQPDDFATFYCQYTDYGRTYVGTFGGGTKVEIKR
notes: Human IgG1/kappa, expressed in HEK293F cells; also called humanized 68D4
Turning to B1, the “EC50 (read off the curve)” value in assay [1] was roughly 60 pM.

B2: comparative monoclonal antibody 5C6 (WO 2017/075432), mouse-rabbit chimera (antibody, V domains shown)
VH: EVQLQQSGPELVKPGASVRISCKASGYTFTDYNIHWVKQSQGKSLEWIGYIYPYNGDTGYNQKFQNKATLTVDNSSSTAYMELRSLTSEDSAVYYCANGNYLYYYAMDYWGQGTSVTVSS
VL: DVVMTQTPLSLPVSLGDQVSISCSSSQSLVHSNGNTYLHWYLQKSGQSPKLLIYKVSNRFSGVPDRFRGSGSGTDFTLKISRVEAEDLGVYFCSQNTHVPLTFGAGTKLELKG
With B2, the binding result is “no binding (tested: 5 µg/ml)” in [2]; “binds” in assay [4]; “no binding (tested: 5 µg/ml)” in [5]; “no binding (tested: 5 µg/ml)” in [6]; “no binding (tested: 5 µg/ml)” in assay [7]. Moreover, the EC50 in [3] turned out to be 4.18 nM; in assay [8], 0.34 nM.

B3: monoclonal antibody 68D4 (rabbit) (antibody, V domains shown)
VH: QSLEESGGRLVKPDETLTITCTVSGIDLSSYDMTWVRQAPGKGLEWIGIIYTGGLTYYASWAKGRFTISKTSTTVDLKITSPTTEDTATYFCAREVGDNNNFWGPGTLVTVSS
VL: DVVMTQTPASVSEPVGGTVTIKCQASESVDSGLAWYHQKPGQPPKLLIYDDTDLASGVPSRFKGSRSGTAHTLTISDLECADAATYYCQYTDYGRTYVGTFGGGTEVVIKG
notes: also called rb 68D4; rabbit 68D4
B3: the binding result in [2] is listed as “no binding (tested: 5 µg/ml)”; in assay [11] it was “binds”; in assay [5], “no binding (tested: 5 µg/ml)”; in assay [6], “no binding (tested: 5 µg/ml)”; in [7], “no binding (tested: 5 µg/ml)”. The concentration giving a half-maximal response (EC50) worked out at 0.19 nM in assay [3] and 0.05 nM in [8]. In assay [9], this molecule registered a Kd of 0.15 nM. The molecule also returned a koff in assay [9] of 9.6e-05 s⁻¹. In assay [9], the kon is 640000 M⁻¹ s⁻¹. The “fold better dissociation constant than mAbA” value in assay [10] was roughly 16.7 fold. Besides, the “fold stronger avidity than mAbA” value in assay [12] was roughly 3 fold. In addition, the “fold stronger binding than 5C6” value in [12] was roughly 22 fold.
